Source: patent US6673915 (GENERAL HOSPITAL, dated 2004)

Biological target: T1, CC CKR3 stably expressed on HEK-293 cells (Example 10A) (human, UniProt P51677 1-355)
T1 sequence (looked up): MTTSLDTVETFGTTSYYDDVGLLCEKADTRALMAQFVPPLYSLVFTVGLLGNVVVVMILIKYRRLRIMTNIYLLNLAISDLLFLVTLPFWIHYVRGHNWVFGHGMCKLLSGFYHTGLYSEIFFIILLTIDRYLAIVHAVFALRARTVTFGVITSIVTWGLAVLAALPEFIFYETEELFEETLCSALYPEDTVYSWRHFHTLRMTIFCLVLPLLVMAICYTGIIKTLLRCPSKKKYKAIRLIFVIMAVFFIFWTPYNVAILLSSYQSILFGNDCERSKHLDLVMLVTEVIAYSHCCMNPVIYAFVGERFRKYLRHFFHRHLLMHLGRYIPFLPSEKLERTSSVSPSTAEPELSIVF
Assay: cell-based or functional assay

B1: recombinant human MCP-4 with the mature N-terminal Gln (PeproTech) (ligand)
chain: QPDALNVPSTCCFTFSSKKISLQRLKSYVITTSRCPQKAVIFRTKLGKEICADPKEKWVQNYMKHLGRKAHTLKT
EC50 of calcium flux relative to eotaxin at CKR3: ~2 fold
